For 1 substance, percent of the total population of SHP-2 recruited into a complex results are on record in patent publication US20030215899A1, “Reversible oxidation of protein tyrosine phosphatases” (CEPTYR, Inc., priority 2002, published 2003).

The target of the assay is PDGFR (ligand-activated, tyrosine phosphorylated) (rat (endogenous protein of Rat-1 fibroblasts)) (UniProt Q05030). The assay is described as follows: preliminary studies in ligand-stimulated Rat-1 cells; method not stated.
Chain of PDGFR (ligand-activated, tyrosine phosphorylated) (rat (endogenous protein of Rat-1 fibroblasts)) (Q05030 32-1097 limits assumed): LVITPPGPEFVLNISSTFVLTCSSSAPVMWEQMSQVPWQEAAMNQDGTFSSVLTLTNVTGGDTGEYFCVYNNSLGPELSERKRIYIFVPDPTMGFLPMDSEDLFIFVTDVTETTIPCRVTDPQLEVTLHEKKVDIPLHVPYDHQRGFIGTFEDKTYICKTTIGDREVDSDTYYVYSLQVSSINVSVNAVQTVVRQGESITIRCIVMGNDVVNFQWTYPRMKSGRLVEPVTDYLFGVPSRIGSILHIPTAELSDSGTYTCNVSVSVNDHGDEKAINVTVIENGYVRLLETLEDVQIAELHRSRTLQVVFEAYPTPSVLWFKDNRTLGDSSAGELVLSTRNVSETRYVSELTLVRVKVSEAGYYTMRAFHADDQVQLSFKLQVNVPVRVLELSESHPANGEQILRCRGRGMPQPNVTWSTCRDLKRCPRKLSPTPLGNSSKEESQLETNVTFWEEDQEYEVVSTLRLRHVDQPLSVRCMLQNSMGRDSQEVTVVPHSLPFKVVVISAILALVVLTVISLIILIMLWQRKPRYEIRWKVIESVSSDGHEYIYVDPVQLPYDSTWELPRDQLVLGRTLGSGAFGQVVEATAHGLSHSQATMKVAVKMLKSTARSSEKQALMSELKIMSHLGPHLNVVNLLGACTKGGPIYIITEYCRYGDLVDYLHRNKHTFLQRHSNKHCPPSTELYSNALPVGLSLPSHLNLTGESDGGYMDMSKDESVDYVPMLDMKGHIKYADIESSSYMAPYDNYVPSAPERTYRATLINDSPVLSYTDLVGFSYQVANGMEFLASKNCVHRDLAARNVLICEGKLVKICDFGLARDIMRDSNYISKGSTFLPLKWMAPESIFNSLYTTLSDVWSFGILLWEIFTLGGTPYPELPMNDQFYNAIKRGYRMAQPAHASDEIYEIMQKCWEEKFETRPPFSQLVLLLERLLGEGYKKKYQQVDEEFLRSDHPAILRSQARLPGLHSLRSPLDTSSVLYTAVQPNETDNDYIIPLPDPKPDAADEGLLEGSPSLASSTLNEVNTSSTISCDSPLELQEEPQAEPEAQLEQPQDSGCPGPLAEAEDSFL

For the substance “SHP-2 (from UniProt P41499 2-593) (enzyme)”, the percent of the total population of SHP-2 recruited into a complex stood at 10%.
